From ChEMBL document CHEMBL3865823, “Ameliorative effects of amide derivatives of 1,3,4-thiadiazoles on scopolamine induced cognitive dysfunction” (Eur J Med Chem, 2016)

Key:
Format in all cases: tissue-based
[1] = compound: CC(=O)Oc1cccc(C(=O)Nc2nnc(-c3ccc(C)cc3)s2)c1; assay: (§1) Inhibition of albino mouse brain AChE assessed as Km for substrate using acetylthiocholine iodide as substrate measured for 2 mins by Ellmans method
[2] = compound: CC(=O)Oc1cccc(C(=O)Nc2nnc(-c3ccccc3)s2)c1; assay: as §1
[3] = compound: CC(=O)Oc1cccc(C(=O)Nc2nnc(-c3ccccc3Cl)s2)c1; assay: as §1
[4] = compound: CC(=O)Oc1cccc(C(=O)Nc2nnc(Cc3ccccc3)s2)c1; assay: as §1
[5] = compound: CC(CC(=O)Nc1nnc(-c2cccc(Cl)c2)s1)CC(C)(C)C; assay: as §1
[6] = compound: CC(CC(=O)Nc1nnc(-c2ccccc2)s1)CC(C)(C)C; assay: as §1
[7] = compound: CC(CC(=O)Nc1nnc(Cc2ccccc2)s1)CC(C)(C)C; assay: as §1
[8] = compound: Cc1ccc(-c2nnc(NC(=O)CC(C)CC(C)(C)C)s2)cc1; assay: as §1
[9] = compound: Cc1ccc(-c2nnc(NC(=O)c3cc(C(F)(F)F)cc(C(F)(F)F)c3)s2)cc1; assay: as §1
[10] = compound: Cc1ccc(-c2nnc(NC(=O)c3cccc(CCl)c3)s2)cc1; assay: as §1
[11] = compound: O=C(Nc1nnc(-c2ccccc2)s1)c1cccc(CCl)c1; assay: as §1
[12] = compound: O=C(Nc1nnc(-c2ccccc2Cl)s1)c1cc(C(F)(F)F)cc(C(F)(F)F)c1; assay: as §1
[13] = compound: O=C(Nc1nnc(-c2ccccc2Cl)s1)c1cccc(CCl)c1; assay: as §1
[14] = compound: O=C(Nc1nnc(Cc2ccccc2)s1)c1cccc(CCl)c1; assay: as §1

B1: Acetylcholinesterase (Mus musculus), P21836 (protein)
chain: MRPPWYPLHTPSLAFPLLFLLLSLLGGGARAEGREDPQLLVRVRGGQLRGIRLKAPGGPVSAFLGIPFAEPPVGSRRFMPPEPKRPWSGVLDATTFQNVCYQYVDTLYPGFEGTEMWNPNRELSEDCLYLNVWTPYPRPASPTPVLIWIYGGGFYSGAASLDVYDGRFLAQVEGAVLVSMNYRVGTFGFLALPGSREAPGNVGLLDQRLALQWVQENIAAFGGDPMSVTLFGESAGAASVGMHILSLPSRSLFHRAVLQSGTPNGPWATVSAGEARRRATLLARLVGCPPGGAGGNDTELIACLRTRPAQDLVDHEWHVLPQESIFRFSFVPVVDGDFLSDTPEALINTGDFQDLQVLVGVVKDEGSYFLVYGVPGFSKDNESLISRAQFLAGVRIGVPQASDLAAEAVVLHYTDWLHPEDPTHLRDAMSAVVGDHNVVCPVAQLAGRLAAQGARVYAYIFEHRASTLTWPLWMGVPHGYEIEFIFGLPLDPSLNYTTEERIFAQRLMKYWTNFARTGDPNDPRDSKSPQWPPYTTAAQQYVSLNLKPLEVRRGLRAQTCAFWNRFLPKLLSATDTLDEAERQWKAEFHRWSSYMVHWKNQFDHYSKQERCSDL
Km [1]: 8.01 µM
Km [2]: 1.37 µM
Km [3]: 16 µM
Km [4]: 4.47 µM
Km [5]: 17.7 µM
Km [6]: 9.09 µM
Km [7]: 24.9 µM
Km [8]: 7.86 µM
Km [9]: 4.89 µM
Km [10]: 1.9 µM
Km [11]: 16.4 µM
Km [12]: 2.35 µM
Km [13]: 15.3 µM
Km [14]: 12.9 µM
